In patent US20210246166A1 (Bayer, published 2021):
Values belong to the binder of their own block, whether it stands above or below them. Bridge positions count the residues as written; N and C are the ends. Square brackets hold non-standard residues; d marks the D form. Ends that are not written are not given here. Phe(3-COOH) = N[C@@H](Cc1cccc(C(=O)O)c1)C(=O)O; Oic = O=C(O)[C@@H]1C[C@@H]2CCCC[C@@H]2N1; PEG8 = NCCOCCOCCOCCOCCOCCOCCOCCOCCC(=O)O; NMeI = CC[C@H](C)[C@H](NC)C(=O)O; tBuAla = CC(C)(C)C[C@H](N)C(=O)O; Pen = CC(C)(S)[C@H](N)C(=O)O; 4Amb = NCc1ccc(C(=O)O)cc1; NMeC = CN[C@@H](CS)C(=O)O; NMeA = CN[C@@H](C)C(=O)O; GABA = NCCCC(=O)O; Sar = CNCC(=O)O

Key:
Assay in all cases: cell-based or functional assay
[1] = molecular target: T1, Recombinant human MASP1 enzyme (fragment corresponding to amino acids 297-699, C-terminal His Tag) (human, UniProt P48740 297-699)
T1 sequence: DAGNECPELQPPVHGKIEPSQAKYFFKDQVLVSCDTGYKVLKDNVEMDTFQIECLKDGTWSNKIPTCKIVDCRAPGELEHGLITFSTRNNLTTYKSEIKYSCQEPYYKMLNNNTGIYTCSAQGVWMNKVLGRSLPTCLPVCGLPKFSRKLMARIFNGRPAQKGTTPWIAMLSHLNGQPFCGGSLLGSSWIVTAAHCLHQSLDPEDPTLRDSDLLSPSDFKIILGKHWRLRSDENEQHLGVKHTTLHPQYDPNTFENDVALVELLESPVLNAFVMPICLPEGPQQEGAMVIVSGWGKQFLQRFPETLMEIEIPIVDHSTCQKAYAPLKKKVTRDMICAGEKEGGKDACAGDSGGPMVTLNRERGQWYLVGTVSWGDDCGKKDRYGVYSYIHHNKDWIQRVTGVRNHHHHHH

[2] = molecular target: Recombinant human MASP2 enzyme (fragment corresponding to amino acids 297-686, C-terminal His Tag) (human, UniProt O00187 297-686)
Recombinant human MASP2 enzyme (fragment corresponding to amino acids 297-686, C-terminal His Tag), sequence (O00187 other isoform, or with tags, fused parts or gaps limits assumed): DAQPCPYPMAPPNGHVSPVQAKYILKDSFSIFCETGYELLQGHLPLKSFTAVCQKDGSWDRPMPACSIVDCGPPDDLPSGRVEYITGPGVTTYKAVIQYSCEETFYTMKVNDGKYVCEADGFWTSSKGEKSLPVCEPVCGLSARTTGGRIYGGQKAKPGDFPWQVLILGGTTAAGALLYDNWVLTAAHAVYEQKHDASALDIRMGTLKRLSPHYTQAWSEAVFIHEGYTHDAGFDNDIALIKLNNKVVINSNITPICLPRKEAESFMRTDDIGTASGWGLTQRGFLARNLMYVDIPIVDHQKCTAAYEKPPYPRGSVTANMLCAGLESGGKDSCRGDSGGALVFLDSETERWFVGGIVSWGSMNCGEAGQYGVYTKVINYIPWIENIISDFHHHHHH

[3] = molecular target: T2, recombinant human MASP1 active protease (amino acids 297-699, C-terminal His Tag) (human, UniProt P48740 297-699)
T2 sequence: T1 sequence

human MASP1 IC50 [1]: 11 nM
B1: G-((N-Me)I)-C+SRSLPPIC+IPD-NH2 (peptide)
peptide: G[NMeI]CSRSLPPICIPD-NH2
modifications: disulfide 3-11; N-terminus assumed
SMILES: CC[C@H](C)[C@@H]1NC(=O)[C@@H]2CCCN2C(=O)[C@@H]2CCCN2C(=O)[C@H](CC(C)C)NC(=O)[C@H](CO)NC(=O)[C@H](CCCNC(=N)N)NC(=O)[C@H](CO)NC(=O)[C@@H](NC(=O)[C@H]([C@@H](C)CC)N(C)C(=O)CN)CSSC[C@@H](C(=O)N[C@H](C(=O)N2CCC[C@H]2C(=O)N[C@@H](CC(=O)O)C(N)=O)[C@@H](C)CC)NC1=O

human MASP2 IC50 [2]: 210 nM
B2: (Gamma-Abu)-IC+SRS-((tBu)A)-PPI-((N-Me)C)+IPD-NH2 (peptide)
peptide: [GABA]ICSRS[tBuAla]PPI[NMeC]IPD-NH2
modifications: disulfide 3-11; N-terminus assumed
SMILES: CC[C@H](C)[C@H](NC(=O)CCCN)C(=O)N[C@H]1CSSC[C@@H](C(=O)N[C@H](C(=O)N2CCC[C@H]2C(=O)N[C@@H](CC(=O)O)C(N)=O)[C@@H](C)CC)N(C)C(=O)[C@H]([C@@H](C)CC)NC(=O)[C@@H]2CCCN2C(=O)[C@@H]2CCCN2C(=O)[C@H](CC(C)(C)C)NC(=O)[C@H](CO)NC(=O)[C@H](CCCNC(=N)N)NC(=O)[C@H](CO)NC1=O

human MASP1 IC50 [1]: 7.1 nM
B3: ((N-Me)G)-IC+SRSLPPIC+IPD-NH2 (HCl salt) (peptide)
peptide: [Sar]ICSRSLPPICIPD-NH2
modifications: disulfide 3-11; also: HCl salt

human MASP1 IC50 [1]: 7 nM
B4: aIC+SRSLP-(Oic)-I-(Pen)+IPD-OH (peptide)
peptide: [dA]ICSRSLP[Oic]I[Pen]IPD-OH
modifications: disulfide 3-11

human MASP2 IC50 [2]: 63 nM
human MASP1 IC50 [1]: 3.8 nM
B5: ((N-Me)G)-IC+SRS-((tBu)A)-PPI-(Pen)+IPP-NH2 (peptide)
peptide: [Sar]ICSRS[tBuAla]PPI[Pen]IPP-NH2
modifications: disulfide 3-11; N-terminus assumed
SMILES: CC[C@H](C)[C@H](NC(=O)CNC)C(=O)N[C@H]1CSSC(C)(C)[C@@H](C(=O)N[C@H](C(=O)N2CCC[C@H]2C(=O)N2CCC[C@H]2C(N)=O)[C@@H](C)CC)NC(=O)[C@H]([C@@H](C)CC)NC(=O)[C@@H]2CCCN2C(=O)[C@@H]2CCCN2C(=O)[C@H](CC(C)(C)C)NC(=O)[C@H](CO)NC(=O)[C@H](CCCNC(=N)N)NC(=O)[C@H](CO)NC1=O

human MASP1 IC50 [1]: 6.3 nM
B6: aIC+SRSLP-(Oic)-I-(Pen)+IPD-NH2 (peptide)
peptide: [dA]ICSRSLP[Oic]I[Pen]IPD-NH2
modifications: disulfide 3-11

human MASP2 IC50 [2]: 140 nM
human MASP1 IC50 [1]: 3.8 nM
B7: HIC+SRS-((tBu)A)-PPI-((N-Me)C)+I-NH2 (peptide)
peptide: HICSRS[tBuAla]PPI[NMeC]I-NH2
modifications: disulfide 3-11; N-terminus assumed
SMILES: CC[C@H](C)[C@H](NC(=O)[C@@H]1CSSC[C@H](NC(=O)[C@@H](NC(=O)[C@@H](N)Cc2c[nH]cn2)[C@@H](C)CC)C(=O)N[C@@H](CO)C(=O)N[C@@H](CCCNC(=N)N)C(=O)N[C@@H](CO)C(=O)N[C@@H](CC(C)(C)C)C(=O)N2CCC[C@H]2C(=O)N2CCC[C@H]2C(=O)N[C@@H]([C@@H](C)CC)C(=O)N1C)C(N)=O

human MASP1 IC50 [1]: 4.2 nM
B8: (3-Amino-2,2-dimethylpropionic acid)-IC+SRS-((tBu)A)-PPI-(Pen)+IPD-NH2 (peptide)
peptide: [3‑Amino‑2,2‑dimethylpropionic acid]ICSRS[tBuAla]PPI[Pen]IPD-NH2
modifications: disulfide 3-11

human MASP1 IC50 [1]: 5.5 nM
B9: G-((N-Me)I)-C+SRSLPPIC+IPD-NH2 (HCl salt) (peptide)
peptide: G[NMeI]CSRSLPPICIPD-NH2
modifications: disulfide 3-11; also: HCl salt

human MASP2 IC50 [2]: 210 nM
human MASP1 IC50 [1]: 3.8 nM
B10: AIC+SRS-((tBu)A)-P-(Oic)-I-((N-Me)C)+IPD-OH (HCl salt) (peptide)
peptide: AICSRS[tBuAla]P[Oic]I[NMeC]IPD-OH
modifications: disulfide 3-11; also: HCl salt

human MASP1 IC50 [1]: 4.2 nM
B11: ((N-Me)G)-IC+SRSLP-(Oic)-I-(Pen)+IP-(PEG8(28 atoms))-NH2 (peptide)
peptide: [Sar]ICSRSLP[Oic]I[Pen]IP[PEG8]-NH2
modifications: disulfide 3-11; N-terminus assumed
SMILES: CC[C@H](C)[C@H](NC(=O)CNC)C(=O)N[C@H]1CSSC(C)(C)[C@@H](C(=O)N[C@H](C(=O)N2CCC[C@H]2C(=O)NCCOCCOCCOCCOCCOCCOCCOCCOCCC(N)=O)[C@@H](C)CC)NC(=O)[C@H]([C@@H](C)CC)NC(=O)[C@@H]2C[C@@H]3CCCC[C@@H]3N2C(=O)[C@@H]2CCCN2C(=O)[C@H](CC(C)C)NC(=O)[C@H](CO)NC(=O)[C@H](CCCNC(=N)N)NC(=O)[C@H](CO)NC1=O

human MASP1 IC50 [1]: 4.4 nM
B12: ((N-Me)A)-IC+SRS-((tBu)A)-PPI-((N-Me)C)+IPD-NH2 (peptide)
peptide: [NMeA]ICSRS[tBuAla]PPI[NMeC]IPD-NH2
modifications: disulfide 3-11; N-terminus assumed
SMILES: CC[C@H](C)[C@H](NC(=O)[C@H](C)NC)C(=O)N[C@H]1CSSC[C@@H](C(=O)N[C@H](C(=O)N2CCC[C@H]2C(=O)N[C@@H](CC(=O)O)C(N)=O)[C@@H](C)CC)N(C)C(=O)[C@H]([C@@H](C)CC)NC(=O)[C@@H]2CCCN2C(=O)[C@@H]2CCCN2C(=O)[C@H](CC(C)(C)C)NC(=O)[C@H](CO)NC(=O)[C@H](CCCNC(=N)N)NC(=O)[C@H](CO)NC1=O

human MASP1 IC50 [1]: 15 nM
B13: (2-(Morpholine)acetyl)-IC+SRS-((tBu)A)-PPI-(Pen)+IPD-NH2 (peptide)
peptide: [2‑(Morpholine)acetyl]ICSRS[tBuAla]PPI[Pen]IPD-NH2
modifications: disulfide 3-11

human MASP1 IC50 [1]: 4.4 nM
B14: AIC+SRSLP-(Oic)-I-((N-Me)C)+IPD-OH (peptide)
peptide: AICSRSLP[Oic]I[NMeC]IPD-OH
modifications: disulfide 3-11; N-terminus assumed
SMILES: CC[C@H](C)[C@H](NC(=O)[C@H](C)N)C(=O)N[C@H]1CSSC[C@@H](C(=O)N[C@H](C(=O)N2CCC[C@H]2C(=O)N[C@@H](CC(=O)O)C(=O)O)[C@@H](C)CC)N(C)C(=O)[C@H]([C@@H](C)CC)NC(=O)[C@@H]2C[C@@H]3CCCC[C@@H]3N2C(=O)[C@@H]2CCCN2C(=O)[C@H](CC(C)C)NC(=O)[C@H](CO)NC(=O)[C@H](CCCNC(=N)N)NC(=O)[C@H](CO)NC1=O

human MASP2 IC50 [2]: 44 nM
human MASP1 IC50 [1]: 3.8 nM
B15: ((N-Me)G)-IC+SRS-((tBu)A)-PPI-(Pen)+IP-NH2 (peptide)
peptide: [Sar]ICSRS[tBuAla]PPI[Pen]IP-NH2
modifications: disulfide 3-11; N-terminus assumed
SMILES: CC[C@H](C)[C@H](NC(=O)CNC)C(=O)N[C@H]1CSSC(C)(C)[C@@H](C(=O)N[C@H](C(=O)N2CCC[C@H]2C(N)=O)[C@@H](C)CC)NC(=O)[C@H]([C@@H](C)CC)NC(=O)[C@@H]2CCCN2C(=O)[C@@H]2CCCN2C(=O)[C@H](CC(C)(C)C)NC(=O)[C@H](CO)NC(=O)[C@H](CCCNC(=N)N)NC(=O)[C@H](CO)NC1=O

human MASP2 IC50 [2]: 8.1 nM
B16: (4-(Aminomethyl)benzoic acid)-IC+SRS-((tBu)A)-PPI-(Pen)+IPD-NH2 (peptide)
peptide: [4Amb]ICSRS[tBuAla]PPI[Pen]IPD-NH2
modifications: disulfide 3-11; N-terminus assumed
SMILES: CC[C@H](C)[C@H](NC(=O)c1ccc(CN)cc1)C(=O)N[C@H]1CSSC(C)(C)[C@@H](C(=O)N[C@H](C(=O)N2CCC[C@H]2C(=O)N[C@@H](CC(=O)O)C(N)=O)[C@@H](C)CC)NC(=O)[C@H]([C@@H](C)CC)NC(=O)[C@@H]2CCCN2C(=O)[C@@H]2CCCN2C(=O)[C@H](CC(C)(C)C)NC(=O)[C@H](CO)NC(=O)[C@H](CCCNC(=N)N)NC(=O)[C@H](CO)NC1=O

human MASP1 IC50 [1]: 5 nM
B17: ((N-Me)G)-IC+SRSLP-(Oic)-I-(Pen)+IP-((3-Carboxy)F)-NH2 (peptide)
peptide: [Sar]ICSRSLP[Oic]I[Pen]IP[Phe(3-COOH)]-NH2
modifications: disulfide 3-11; N-terminus assumed
SMILES: CC[C@H](C)[C@H](NC(=O)CNC)C(=O)N[C@H]1CSSC(C)(C)[C@@H](C(=O)N[C@H](C(=O)N2CCC[C@H]2C(=O)N[C@@H](Cc2cccc(C(=O)O)c2)C(N)=O)[C@@H](C)CC)NC(=O)[C@H]([C@@H](C)CC)NC(=O)[C@@H]2C[C@@H]3CCCC[C@@H]3N2C(=O)[C@@H]2CCCN2C(=O)[C@H](CC(C)C)NC(=O)[C@H](CO)NC(=O)[C@H](CCCNC(=N)N)NC(=O)[C@H](CO)NC1=O

human MASP1 IC50 [1]: 13 nM
B18: ((N-Me)G)-IC+SRSLPPIC+IPD-NH2 (peptide)
peptide: [Sar]ICSRSLPPICIPD-NH2
modifications: disulfide 3-11; N-terminus assumed
SMILES: CC[C@H](C)[C@H](NC(=O)CNC)C(=O)N[C@H]1CSSC[C@@H](C(=O)N[C@H](C(=O)N2CCC[C@H]2C(=O)N[C@@H](CC(=O)O)C(N)=O)[C@@H](C)CC)NC(=O)[C@H]([C@@H](C)CC)NC(=O)[C@@H]2CCCN2C(=O)[C@@H]2CCCN2C(=O)[C@H](CC(C)C)NC(=O)[C@H](CO)NC(=O)[C@H](CCCNC(=N)N)NC(=O)[C@H](CO)NC1=O

human MASP1 IC50 [3]: 1.9 nM
B19: (3-Amino-3-methylbutyric acid)-IC+SRS-((tBu)A)-PPI-(Pen)+IPD-NH2 (peptide)
peptide: [3‑Amino‑3‑methylbutyric acid]ICSRS[tBuAla]PPI[Pen]IPD-NH2
modifications: disulfide 3-11

human MASP1 IC50 [1]: 16 nM
B20: Ac-IC+SRS-((tBu)A)-PPI-(Pen)+IPD-NH2 (peptide)
peptide: Ac-ICSRS[tBuAla]PPI[Pen]IPD-NH2
modifications: disulfide 2-10
SMILES: CC[C@H](C)[C@H](NC(C)=O)C(=O)N[C@H]1CSSC(C)(C)[C@@H](C(=O)N[C@H](C(=O)N2CCC[C@H]2C(=O)N[C@@H](CC(=O)O)C(N)=O)[C@@H](C)CC)NC(=O)[C@H]([C@@H](C)CC)NC(=O)[C@@H]2CCCN2C(=O)[C@@H]2CCCN2C(=O)[C@H](CC(C)(C)C)NC(=O)[C@H](CO)NC(=O)[C@H](CCCNC(=N)N)NC(=O)[C@H](CO)NC1=O
